B1: G9-154-3F (peptide)
peptide: KTFGQYWQV
modifications: not checked
B2: G9-154-1A (peptide)
peptide: ATWGQYWQV
modifications: not checked
B3: G9-154-1F (peptide)
peptide: FTWGQYWQV
modifications: not checked
B4: G9-154-2M (peptide)
peptide: KMWGQYWQV
modifications: not checked
B5: G9-154-2L (peptide)
peptide: KLWGQYWQV
modifications: not checked
B6: G9-154-1Y2L (peptide)
peptide: YLWGQYWQV
modifications: not checked
B7: G9-154-1W2L (peptide)
peptide: WLWGQYWQV
modifications: not checked
B8: G9-209-3M (peptide)
peptide: ITMQVPFSV
modifications: not checked
B9: G9-209-2L3Y (peptide)
peptide: ILYQVPFSV
modifications: not checked
B10: G9-154-2I (peptide)
peptide: KIWGQYWQV
modifications: not checked
B11: G9-154-1L (peptide)
peptide: LTWGQYWQV
modifications: not checked
B12: G9-154-1Y (peptide)
peptide: YTWGQYWQV
modifications: not checked
B13: G9-154-3Y (peptide)
peptide: KTYGQYWQV
modifications: not checked
B14: G9-154-1A2L (peptide)
peptide: ALWGQYWQV
modifications: not checked
B15: G9-209-2L3S (peptide)
peptide: ILSQVPFSV
modifications: not checked
B16: G9-154-1W (peptide)
peptide: WTWGQYWQV
modifications: not checked
B17: G9-154-1F2L (peptide)
peptide: FLWGQYWQV
modifications: not checked
B18: G9-154-1L2L (peptide)
peptide: LLWGQYWQV
modifications: not checked
B19: gp100 peptide G10-5 (peptide)
peptide: VLYRYGSFSV
modifications: not checked
B20: gp100 peptide G10-4 (peptide)
peptide: LLDGTATLRL
modifications: not checked
B21: tyrosinase peptide T9369 (peptide)
peptide: YMNGTMSQV
modifications: not checked

Biological target: T1, HLA-A2.1 (heavy chain with human beta 2-microglobulin) (human)
Assay: competition with 5 nM radiolabeled HBc18-27 for HLA-A2.1 + b2m, gel filtration

IC50 [nM] | Binder
21 | B1
5.2 | B2
1.6 | B3
6.5 | B4
2 | B5
1.7 | B6
2.8 | B7
40 | B8
5 | B9
3 | B10
3.4 | B11
2.5 | B12
30 | B13
2.3 | B14
20 | B15
60 | B16
2.6 | B17
1.6 | B18

Biological target: T1, HLA-A2.1 (heavy chain with human beta …)
Assay: competition with radiolabeled HBc18-27 for soluble HLA-A2.1 + b2m, gel filtration

IC50 [nM] | Binder
13 | B19
483 | B20
40 | B21

Biological target: T1, HLA-A2.1 (heavy chain with human beta …)
Assay: IC50 of standard HBc18-27 peptide ([…] nM) / IC50 of sample peptide, same competition assay

Ratio to Standard | Binder
0.38 | B19
0.01 | B20
0.13 | B21

Reference: US7612044
